# Assay results taken from PMC9719539, “Single-molecule characterization of subtype-specific β1 integrin mechanics” (Nature Communications, 2022).
# Tested on: BJ-5ta cells
# Assay: Percentage of spread cells / cell spreading on TGT surfaces
# Type: cell-based, human
# Settings: 1 h after seeding
# Method: Glass coverslips were densely PEGylated to minimize non-specific interactions such as the binding of cell-secreted extracellular matrix proteins. Coverslips cleaned by piranha etching solution (a 3:1 mixture of sulfuric acid and hydrogen peroxide) were incubated in silanization solution (UCT, 1760-24-3; 2% aminosilane and 5% acetic acid in methanol) for 30 min and reacted with a mixture of Polyethylene glycol (PEG) with and without biotin (1:19, 150 mg/ml; Laysan Bio, Biotin-PEG-SVA-5000 and MPEG-SVA-5000) for 4 h. Surfaces were washed thoroughly and dried using nitrogen gas after each step. A 3D-printed dish (PLA) or a silicon gasket (Grace Bio Labs, 103280) was attached to the coverslip to form a dish. Neutravidin (Thermo Fisher scientific, 31000; 0.4 mg/ml) was added to the dish for 10 min and washed out thoroughly. […]
# The cells were gently harvested by washing in PBS for 1 min, incubating with 0.05% trypsin for 3 min, and then neutralizing with cell culture medium (FBS 10%). […] A Nikon Eclipse Ti microscope equipped with Xenon arc lamp, Nikon perfect focus system, custom total internal reflection fluorescence microscopy (TIRFM) module, and custom reflection interference contrast microscopy (RICM) module was driven by Elements software. […] Images were recorded using an electron-multiplying charge-coupled device (EMCCD; Andor iXon 888). […]
molecule,measurement,value
"vitronectin: physiologic macromolecular ligand with RGD motif (protein, UniProt P04004 20-478, looked up) Vitronectin: DQESCKGRCTEGFNVDKKCQCDELCSYYQSCCTDYTAECKPQVTRGDVFTMPEDEYTVYDDGEEKNNATVHEQVGGPSLTSDLQAQSKGNPEQTPVLKPEEEAPAPEVGASKPEGIDSRPETLHPGRPQPPAEEELCSGKPFDAFTDLKNGSLFAFRGQYCYELDEKAVRPGYPKLIRDVWGIEGPIDAAFTRINCQGKTYLFKGSQYWRFEDGVLDPDYPRNISDGFDGIPDNVDAALALPAHSYSGRERVYFFKGKQYWEYQFQHQPSQEECEGSSLSAVFEHFAMMQRDSWEDIFELLFWGRTSAGTRQPQFISRDWHGVPGQVDAAMAGRIYISGMAPRPSLAKKQRFRHRNRKGYRSQRGHSRGRNQNSRRPSRATWLSLFSSEESNLGANNYDDYRMDWLVPATCEPIQSVFFFSGDKYYRVNLRTRRVDTVDPPYPRSIAQYWLGCPAPGHL",cell morphology (in words),elongated with irregular lamellipodia
